How the values were obtained:
[1] = test system: human breast and ovary tumors; experiment: Custom gene array, breast and ovary tumors versus normal adjacent tissue; conditions: Table 18
Source text: A study has been performed to examine the expression of these genes in a selection of breast and ovary tumors, comparing expression with normal adjacent tissue from the same patient. There is expected to be a large degree of variation between different patients, and the study here contains only 5 patients with a range of diagnoses.
Patients are designated as Letters:
E: person. Diagnosis: ovarian adenocarcinoma. Normal ovarian tissue derived from an age-matched separate individual.
: person. Diagnosis: poorly differentiated adenocarcinoma. Normal ovarian tissue derived from the same individual.
G: person. Diagnosis: moderately-differentiated adenocarcinoma. Normal ovarian tissue derived from the same individual.
H: person. Diagnosis: invasive ductal carcinoma. Normnal breast tissue derived from the same individual.
K: person. Diagnosis: invasive ductal carcinoma. Normal breast tissue derived from the same individual.
Data normalisation was done per-chip to correct for differences in labelling and hybridization efficiency. Per-gene normalisation was done such that the expression values of each gene are relative to the median value of that gene throughout the series of samples. By comparing the expression values under normal (nor) and tumor (turn) for a single patient, differences in expression between the normal and malignant tissue of that patient can be inferred.

[2] = test system: primary human cell cultures (11 cell types); experiment: Custom gene array, 11 human cell types in normoxia or hypoxia for 6 hr and 18 hr; type: cell-based;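 for mRNA expression level, #1 HY 18 hr: cell type #1 is adipocyte from subcutaneous adult adipose tissue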;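 for mRNA expression level, #1 HY 6 hr: cell type #1 is adipocyte from subcutaneous adult adipose tissue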;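 for mRNA expression level, #1 NO: cell type #1 is adipocyte from subcutaneous adult adipose tissue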;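 for mRNA expression level, #2 HY 18 hr: cell type #2 is fetal cardiomyocyte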;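 for mRNA expression level, #2 HY 6 hr: cell type #2 is fetal cardiomyocyte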;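 for mRNA expression level, #2 NO: cell type #2 is fetal cardiomyocyte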;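 for mRNA expression level, #3 HY 6 hr: cell type #3 is human umbilical vein endothelial cells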;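 for mRNA expression level, #3 NO: cell type #3 is human umbilical vein endothelial cells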;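 for mRNA expression level, #4 HY 18 hr: cell type #4 is adult dermal fibroblast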;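 for mRNA expression level, #4 HY 6 hr: cell type #4 is adult dermal fibroblast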;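 for mRNA expression level, #4 NO: cell type #4 is adult dermal fibroblast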;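 for mRNA expression level, #5 HY 6 hr: cell type #5 is adult hepatocyte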;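 for mRNA expression level, #5 NO: cell type #5 is adult hepatocyte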;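 for mRNA expression level, #6 HY 6 hr: cell type #6 is blood-derived macrophage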;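 for mRNA expression level, #6 NO: cell type #6 is blood-derived macrophage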
Procedure, shortened: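 Eleven primary, unmodified human cell types (one non-primary neuronal type) held in normoxia or hypoxia for 6 hr and 18 hr. RNA hybridised to duplicate or triplicate custom arrays, normalised per array to reference genes. Expression given relative to each gene's median across all conditions.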

[3] = test system: human macrophages; experiment: Custom gene array, macrophages with no cytokines, IL-10 or LPS + IFN, in normoxia and hypoxia; type: cell-based; conditions: Table 15, referenced to the median value of that gene throughout all 6 conditions
Experimental: Macrophages were derived and cultured as described elsewhere in the specification. A total of 6 experimental conditions were analysed, as shown below. Where cells were treated with cytokines or hypoxia (0.1% oxygen), this was for 6 hr. Lipopolysaccharide (LPS) (from E.coli 026:B6; Sigma), gamma Interferon (IFN) and Interleukin-10 (IL-10) were all used at a final concentration of 100 ng/ml. The effect of gamma Interferon and Lipopolysaccharide is to activate macrophages, with a Th1 biased phenotype, as found in many inflammatory conditions. Interleukin-10 is a Th2 cytokine and de-activates macrophages, and suppresses their effector functions.

B1: p1E19 (nucleic acid, listed as Homo Sapiens)
DNA: TTTTTTTTCCTAGTTTCATTAAAGATGGAGTTCATATTTGTTTCTCATATTAATTTTTAAGACAAAAAAAAGCAGAACTGTTTTCACCCATTAAGTTAAAAACTGGAATTTTACCTTTCCAAACTTATTTCCTACCTTGCCCCTTTTCATGTTAATACCATGAACTATTCAGTAATTCTCTTCAAGCTCCATAATTTCCTACTTTCTACTTTTGCTCATTATTTCCATTCCAAGGGAAAGTTCTGTGTGCGTGTCTATTTCTATGTTCAAATTACACCTGTAAGATCCAACTCACAGGGCCATTGCCCTCTAGGGGTCTCTCCTGGATCCACTTCAACAGGAGGTAATTTTATCTNCACCGGATACCATTTCCTCCTTGGACACTTACCTCTTTTANGGGGACTCCCGAGGGTTGAGGGGGNG
modifications: EST array clone; misc_feature 356, 397, 422: n = A,T,C or G
[1]; breast, normal adjacent tissue, patient H
  gene expression level on custom gene array, Breast nor H: 2.38
[1]; breast, normal adjacent tissue, patient K
  gene expression level on custom gene array, Breast nor K: 1.19
[1]; breast, tumor tissue, patient H
  gene expression level on custom gene array, Breast tum H: 2.49
[1]; breast, tumor tissue, patient K
  gene expression level on custom gene array, Breast tum K: 1.78
[1]; ovary, normal adjacent tissue, patient E
  gene expression level on custom gene array, Ovary nor E: 1.00
[1]; ovary, normal adjacent tissue, patient F
  gene expression level on custom gene array, Ovary nor F: 1.38
[1]; ovary, normal adjacent tissue, patient G
  gene expression level on custom gene array, Ovary nor G: 0.20
[1]; ovary, tumor tissue, patient E
  gene expression level on custom gene array, Ovary tum E: 2.04
[1]; ovary, tumor tissue, patient F
  gene expression level on custom gene array, Ovary tum F: 1.30
[1]; ovary, tumor tissue, patient G
  gene expression level on custom gene array, Ovary tum G: 1.19
[2]; cell type #1, hypoxia 6 hr
  mRNA expression level, #1 HY 6 hr: 0.65
[2]; cell type #1, hypoxia 18 hr
  mRNA expression level, #1 HY 18 hr: 0.62
[2]; cell type #1, normoxia
  mRNA expression level, #1 NO: 0.79
[2]; cell type #2, hypoxia 6 hr
  mRNA expression level, #2 HY 6 hr: 2.37
[2]; cell type #2, hypoxia 18 hr
  mRNA expression level, #2 HY 18 hr: 2.99
[2]; cell type #2, normoxia
  mRNA expression level, #2 NO: 2.64
[2]; cell type #3, hypoxia 6 hr
  mRNA expression level, #3 HY 6 hr: 1.61
[2]; cell type #3, hypoxia 18 hr
  mRNA expression level, #3 HY 18 hr: 1.77
[2]; cell type #3, normoxia
  mRNA expression level, #3 NO: 2.10
[2]; cell type #4, hypoxia 6 hr
  mRNA expression level, #4 HY 6 hr: 0.40
[2]; cell type #4, hypoxia 18 hr
  mRNA expression level, #4 HY 18 hr: 0.64
[2]; cell type #4, normoxia
  mRNA expression level, #4 NO: 0.61
[2]; cell type #5, hypoxia 6 hr
  mRNA expression level, #5 HY 6 hr: 0.89
[2]; cell type #5, normoxia
  mRNA expression level, #5 NO: 0.42
[2]; cell type #6, hypoxia 6 hr
  mRNA expression level, #6 HY 6 hr: 0.76
[2]; cell type #6, hypoxia 18 hr
  #6 HY 18 hr (mRNA expression level): 1.08
[2]; cell type #6, normoxia
  mRNA expression level, #6 NO: 0.68
[2]; cell type #7, hypoxia 6 hr
  #7 HY 6 hr (mRNA expression level): 0.50
[2]; cell type #7, hypoxia 18 hr
  #7 HY 18 hr (mRNA expression level): 0.32
[2]; cell type #7, normoxia
  #7 NO (mRNA expression level): 0.41
[2]; cell type #8, hypoxia 6 hr
  #8 HY 6 hr (mRNA expression level): 0.90
[2]; cell type #8, hypoxia 18 hr
  #8 HY 18 hr (mRNA expression level): 0.47
[2]; cell type #8, normoxia
  #8 NO (mRNA expression level): 0.38
[2]; cell type #9, hypoxia 6 hr
  #9 HY 6 hr (mRNA expression level): 1.11
[2]; cell type #9, hypoxia 18 hr
  #9 HY 18 hr (mRNA expression level): 1.17
[2]; cell type #9, normoxia
  #9 NO (mRNA expression level): 1.30
[2]; cell type #10, hypoxia 6 hr
  #10 HY 6 hr (mRNA expression level): 1.52
[2]; cell type #10, hypoxia 18 hr
  #10 HY 18 hr (mRNA expression level): 1.39
[2]; cell type #10, normoxia
  #10 NO (mRNA expression level): 1.29
[2]; cell type #11, hypoxia 6 hr
  #11 HY 6 hr (mRNA expression level): 1.69
[2]; cell type #11, hypoxia 18 hr
  #11 HY 18 hr (mRNA expression level): 1.39
[2]; cell type #11, normoxia
  #11 NO (mRNA expression level): 1.14
[2]; hypoxia/normoxia induction ratio, 6 hr hepatocyte
  HIGHEST FOLD CHANGE IN HYPOXIA (hr hypoxia + cell type): 2.13 (6 hr hepatocyte) fold

B2: p2L23 (nucleic acid, listed as Homo Sapiens)
DNA: GGAGCTGTTTACCCCCACTCTAATAGGGGTTCAATATAAAAAGCCGGCAGAGAGCTGTCCAAGTCAGACGCGCCTCTGCATCTGCGCCAGGCGAACGGGTCCTGCGCCTCCTGCAGTCCCAGCTCTCCACCACCGCCGCGTGCGCCTGCAGACGCTCCGCTCGCTGCCTTCTCTCCTGGCAGGCGCTGCCTTTTCTCCCCGTTAAAGGGCACTTGGGCTGAAGGATCGCTTTGAGATCTGAGGAACCCGCAGCGCTTTGAGGGACCTGAAGCTGTTTTTCTTCGTTTTCCTTTGGGTTCAGTTTGAACGGGAGGTTTTTGATCCCTTTTTTTCAGAATGGATTATTTGCTCATGATTTTCTCTCTGCTGTTTGTGGCTTGCCAAGGAGCTCCAGAAACAGCAGTCTTAGGCGCTGAGCTCAGCGCGGTGGGTGAGAACGGCGGGGAGAAACCCACTCCCAGTCCACCCTGGCGGCTCCGCCGGTCCAAGCGCTGCTCCTGCTCGTCCCTGATGGATAAAGAGTGTGTCTACTTCTGCCACCTGGACATCATTTGGGTCAACACTCCCGAGCACGTTGTTCCGTATGGACTTGGAAGCCCTAGGTCCAAGAGAGCCTTGGAGAATTTACTTCCCACAAAGGCAACAGACCGTGAGAATAGATGCCAATGTGCTAGCCAAAAAGACAAGAAGTGCTGGAATTTTTGCCAAGCAGGAAAAGAACTCAGGGCTGAAGACATTATGGAGAAAGACTGGAATAATCATAAGAAAGGAAAAGACTGTTCCAAGCTTGGGAAAAAGTGTATTTATCAGCAGTTAGTGAGAGGAAGAAAAATCAGAAGAAGTTCAGAGGAACACCTAAGACAAACCAGGTCGGAGACCATGAGAAACAGCGTCAAATCATCTTTTCATGATCCCAAGCTGAAAGGCAAGCCCTCCAGAGAGCGTTATGTGACCCACAACCGAGCACATTGGTGACAGACTTCGGGGCCTGTCTGAAGCCATAGCCTCCACGGAGAGCCCTGTGGCCGACTCTGCACTCTCCACCCTGGCTGGGATCAGAGCAGGAGCATCCTCTGCTGGTTCCTGACTGGCAAAGGACCAGCGTCCTCGTTCAAAACATTCCAAGAAAGGTTAAGGAGTTCCCCCAACCATCTTCACTGGCTTCCATCAGTGGTAACTGCTTTGGTCTCTTCTTTCATCTGGGGATGACAATGGACCTCTCAGCAGAAACACACAGTCACATTCGAATTC
[3]; #1 no cytokines/normoxia
  mRNA EXPRESSION (experimental condition) #1: 1.02
[3]; #2 no cytokines/hypoxia
  mRNA EXPRESSION (experimental condition) #2: 0.62
[3]; #3 IL-10/normoxia
  mRNA EXPRESSION (experimental condition) #3: 0.74
[3]; #4 IL-10/hypoxia
  mRNA EXPRESSION (experimental condition) #4: 0.50
[3]; #5 LPS/IFN/normoxia
  mRNA EXPRESSION (experimental condition) #5: 11.4
[3]; #6 LPS/IFN/hypoxia
  mRNA EXPRESSION (experimental condition) #6: 10.1

Source: patent US20030203372A1, “Analysis method” (priority 2000, published 2003)
